Target: SARS-CoV-2 RBD (residues 319–541) (SARS-CoV-2, UniProt P0DTC2)
Experiment: BLI

B1: CR3014 parental (human IgG1) (antibody, V domains shown)
VH: EVQLVESGGGLVQPGGSLRLSCAASGFTFSDHYMDWVRQAPGKGLEWVGRTRNKANSYTTEYAASVKGRFTISRDDSKNSLYLQMNSLKTEDTAVYYCARGISPFYFDYWGQGTLVTVSS
VL: not shown
B1: no binding.
